Legend:
[1] = molecular target: β1-pTpT peptide, N-terminally desthiobiotinylated; assay: pull-down; desthiobiotinylated β1-tail peptides on Dynabeads MyOne Streptavidin C1; 0.5 mg whole cell lysate in MPER with protease and phosphatase inhibitors, 4°C; Western blot and densitometry
[2] = molecular target: talin-1 head domain (THD) head domain (UniProt P26039); assay: streptavidin-bead peptide pull-down, Western blot; details: reference: β1-WT tail peptide; sites T788,T789
[3] = molecular target: kindlin-2 (UniProt Q8CIB5); assay: streptavidin-bead peptide pull-down, Western blot; details: reference: β1-WT tail peptide; sites T788,T789
[4] = molecular target: SNX17 (UniProt Q8BVL3); assay: biotinylated peptide pull-down from cell lysate; details: reference: β1-WT tail peptide; sites T788,T789
[5] = molecular target: kindlin-2 (UniProt Q8CIB5); assay: biotinylated peptide pull-down from cell lysate; details: reference: β1-WT tail peptide; sites T788,T789
[6] = molecular target: talin-1 head domain (THD) head domain (UniProt P26039); assay: microscale thermophoresis, Atto488-labeled peptides; details: reference: β1-WT tail peptide; sites T788,T789
[7] = molecular target: kindlin-2 (UniProt Q8CIB5); assay: as above; details: reference: β1-WT tail peptide; sites T788,T789

| Substance | binding in percent of that to β1-WT (densitometry) [1] | binding against the reference [2] | binding against the reference [3] | percent of reference [4] | percent of reference [5] | binding against the reference [6] | binding against the reference [7] |
| --- | --- | --- | --- | --- | --- | --- | --- |
| endogenous kindlin-2 (from UniProt Q8CIB5 1-680) (natural protein) | 27% |  |  |  |  |  |  |
| β1 integrin (cytoplasmic tail, β1-tail) cytoplasmic tail (from UniProt P09055) β1-pTpT tail peptide |  | same | lost | 60% | 27% | same | lost |
